This is an account of results in article doi:10.1101/2022.10.19.512861.

In the experiment the target is MreB from Geobacillus stearothermophilus (MreB^Gs), wild type, His6-tagged (Geobacillus stearothermophilus ATCC 7953). The experiment in a line: negative stain electron microscopy of polymerization.

For the substance “MreB from Geobacillus stearothermophilus (MreB^Gs), wild type, His6-tagged (natural protein)”, the concentration of MreB above which polymers were observed was found to be 0.55 µM.
